Reference: paper PMC10397247

How the values were obtained:
Test in all cases: two-hybrid library CCNG1;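 note: natural log of median RNA to DNA barcode read ratio; higher means stronger binding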
[1] = biological target: T1, P9SHb
T1 chain: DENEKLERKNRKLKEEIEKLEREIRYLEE

[2] = biological target: T2, P3SHb
T2 chain: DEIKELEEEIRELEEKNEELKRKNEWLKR

[3] = biological target: T3, P6SHb
T3 chain: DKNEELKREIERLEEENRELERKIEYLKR

[4] = biological target: T4, P5SHb
T4 chain: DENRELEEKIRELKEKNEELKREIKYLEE

[5] = biological target: T5, P8SHb
T5 chain: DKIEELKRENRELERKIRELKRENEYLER

[6] = biological target: T6, P7SHb
T6 chain: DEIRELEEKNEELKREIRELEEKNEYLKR

[7] = biological target: T7, P2SHb
T7 chain: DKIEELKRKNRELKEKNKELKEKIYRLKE

[8] = biological target: T8, P4SHb
T8 chain: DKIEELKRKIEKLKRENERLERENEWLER

[9] = biological target: T9, P12SHb
T9 chain: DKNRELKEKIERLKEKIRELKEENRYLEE

[10] = biological target: T10, P1SHb
T10 chain: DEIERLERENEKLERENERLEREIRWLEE

- interaction score [1]: 1.48
- interaction score [2]: 0.41
- interaction score [3]: 0.412
- interaction score [4]: 0.0253
- interaction score [5]: -0.747
- interaction score [6]: -0.593
- interaction score [7]: -1.12
- interaction score [8]: -0.198
- interaction score [9]: -0.206
- interaction score [10]: -1.47
B1: P12SHb (peptide)
chain: DKNRELKEKIERLKEKIRELKEENRYLEE
